The EC50 is the concentration at which the effect is half-maximal. In general, EC50 (read off the curve) refers to the midpoint of the concentration-response curve. The Kd is the equilibrium constant for the complex coming apart. By koff is commonly meant a measure of how fast the partners let go of each other. For orientation: kon means the second-order rate constant of association.

The target in experiment [1] is T1, human CD137 ECD-mIgG2a (human).
T1 construct: also called huCD137
Kind of experiment: antigen ELISA, coated huCD137-mIgG2a, detection with HRP anti-human IgG, single antibody concentration not given; competitor where added: 20 ug/ml CD137L. As for the experimental part: (§1) For antigen ELISA, a Maxisorp immunoplate was coated with antigens and blocked with 3% BSA (w/v) in PBS buffer (blocking buffer). Monoclonal VHH antibodies were blocked with blocking buffer for 30 minutes and added to wells of the ELISA plate for 1 hour. After washes with PBST, bound antibodies were detected using HRP-conjugated anti-human IgG antibody (Sigma, A0170) and 3,3′,5,5′-tetramethylbenzidine substrate (Cat.: 00-4201-56, eBioscience, USA). Ligand competition was also applied in a ELISA assay.
(In an ELISA, binding on a coated surface is turned into a signal by an enzyme label.)

Experiment [2] addresses T2, mouse CD137 (mouse, UniProt P20334 24-187, limits assumed).
T2 construct: Coated antigen in ELISA; construct not described
T2 sequence (looked up): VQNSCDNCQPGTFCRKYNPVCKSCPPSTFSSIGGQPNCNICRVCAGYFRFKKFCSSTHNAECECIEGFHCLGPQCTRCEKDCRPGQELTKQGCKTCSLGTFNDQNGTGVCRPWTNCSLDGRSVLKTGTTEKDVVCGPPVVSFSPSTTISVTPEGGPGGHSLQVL
Kind of experiment: antigen ELISA. The method, then:
as §1

For experiment [3], the target named is T3, huCD137-his.
T3 construct: The sheet prints only 'huCD137-his'; also called human CD137-ECD-his
T3 extracellular domain with C-terminal His tag: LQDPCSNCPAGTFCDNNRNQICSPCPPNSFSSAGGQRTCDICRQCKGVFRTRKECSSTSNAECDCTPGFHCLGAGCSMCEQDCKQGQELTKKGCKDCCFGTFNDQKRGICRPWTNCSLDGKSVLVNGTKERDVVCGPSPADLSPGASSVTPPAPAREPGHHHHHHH
The experiment is described as follows: antigen ELISA, coated huCD137-his, detection with HRP anti-human IgG, single antibody concentration not given; competitor where added: 20 ug/ml CD137L. The method, then:
as §1

Experiment [4] has as its target T4, human GPC3 expressed on HepG2 cells (human, UniProt P51654 25-554).
T4 construct: also called native huGPC3; native GPC3
The experiment is described as follows: FACS on HepG2 cells.

Experiment [5] addresses T5, human CD137 over-expressed on HuT78 cells (HuT78/CD137) (human, UniProt Q07011 24-255).
T5 construct: also called Hut78/huCD137; native CD137
Kind of experiment: flow cytometry on HuT78/CD137 cells, detection anti-hFc 647, no CD137L added. For orientation: In flow cytometry, cells or beads pass a laser one at a time.

In experiment [6] the target is T6, cynomolgus monkey CD137 ECD (cynomolgus monkey).
T6 construct: also called Cyno CD137; Cyno CD137 ECD
T6 chain: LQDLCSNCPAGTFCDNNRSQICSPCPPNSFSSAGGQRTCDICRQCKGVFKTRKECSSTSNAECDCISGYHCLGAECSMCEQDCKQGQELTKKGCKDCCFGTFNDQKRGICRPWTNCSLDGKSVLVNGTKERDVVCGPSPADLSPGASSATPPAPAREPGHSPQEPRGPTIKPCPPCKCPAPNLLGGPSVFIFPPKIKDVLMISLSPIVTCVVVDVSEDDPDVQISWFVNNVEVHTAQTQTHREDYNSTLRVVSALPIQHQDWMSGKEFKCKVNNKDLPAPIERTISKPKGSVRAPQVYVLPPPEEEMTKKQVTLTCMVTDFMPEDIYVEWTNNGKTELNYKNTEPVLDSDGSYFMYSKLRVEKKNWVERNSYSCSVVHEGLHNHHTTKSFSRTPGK
The experiment is described as follows: SPR. As for the experimental part: (§2) The binding kinetics of the antibodies were measured using surface plasmon resonance (SPR). SPR was used to measure the on-rate constant (Kₐ) and off-rate constant (Kd) of the antibodies to recombinant proteins of CD137 and GPC3 and then determined the affinity constant (KD).
On the technique in general: Surface plasmon resonance follows binding to a sensor surface in real time, without labels.

Experiment [7] addresses T7, human GPC3 (Cat.: 10088-H08H, Sino Biological, CHINA) (human, UniProt P51654 25-559).
T7 construct: Bought protein
Kind of experiment: SPR. The method, then:
as §2

The target in experiment [8] is T8, human CD137 (Cat.: 41B-H5256, Acrobio, CHINA) (human, UniProt Q07011 24-186).
T8 construct: Bought protein
Kind of experiment: SPR. As for the experimental part:
as §2

In experiment [9] the target is T9, cynomolgus monkey GPC3 (Cat.: GP3-C5225, Acrobio, CHINA) (cynomolgus monkey, UniProt A0A2K5VK50 24-558).
T9 construct: also called Cyno GPC3
The experiment is described as follows: SPR. As for the experimental part:
as §2

The target in experiment [10] is T5, human CD137 over-expressed on HuT78 …. The experiment is described as follows: FACS on HuT78/CD137 cells.

T7 sequence (P51654 25-559 limits assumed): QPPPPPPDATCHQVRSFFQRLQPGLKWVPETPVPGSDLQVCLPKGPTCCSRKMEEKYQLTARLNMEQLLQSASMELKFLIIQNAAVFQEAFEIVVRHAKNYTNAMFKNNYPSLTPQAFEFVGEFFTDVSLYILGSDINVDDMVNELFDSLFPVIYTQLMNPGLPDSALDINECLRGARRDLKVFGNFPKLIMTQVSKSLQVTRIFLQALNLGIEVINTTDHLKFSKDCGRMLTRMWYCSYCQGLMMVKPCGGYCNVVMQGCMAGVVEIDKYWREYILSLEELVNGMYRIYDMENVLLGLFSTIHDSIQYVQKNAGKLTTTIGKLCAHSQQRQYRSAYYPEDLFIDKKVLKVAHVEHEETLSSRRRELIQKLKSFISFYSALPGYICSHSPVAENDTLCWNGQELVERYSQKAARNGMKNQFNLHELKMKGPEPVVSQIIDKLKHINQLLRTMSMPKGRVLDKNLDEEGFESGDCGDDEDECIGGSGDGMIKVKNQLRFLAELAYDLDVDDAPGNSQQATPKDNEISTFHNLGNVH
T5 sequence (Q07011 24-255 limits assumed): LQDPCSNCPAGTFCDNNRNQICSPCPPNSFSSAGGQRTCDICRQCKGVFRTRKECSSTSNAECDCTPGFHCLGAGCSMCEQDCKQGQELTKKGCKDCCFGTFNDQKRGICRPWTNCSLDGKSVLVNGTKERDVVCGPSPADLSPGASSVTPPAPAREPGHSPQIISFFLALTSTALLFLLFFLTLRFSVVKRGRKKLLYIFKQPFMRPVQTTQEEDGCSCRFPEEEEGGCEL
T4 sequence (P51654 25-554 limits assumed): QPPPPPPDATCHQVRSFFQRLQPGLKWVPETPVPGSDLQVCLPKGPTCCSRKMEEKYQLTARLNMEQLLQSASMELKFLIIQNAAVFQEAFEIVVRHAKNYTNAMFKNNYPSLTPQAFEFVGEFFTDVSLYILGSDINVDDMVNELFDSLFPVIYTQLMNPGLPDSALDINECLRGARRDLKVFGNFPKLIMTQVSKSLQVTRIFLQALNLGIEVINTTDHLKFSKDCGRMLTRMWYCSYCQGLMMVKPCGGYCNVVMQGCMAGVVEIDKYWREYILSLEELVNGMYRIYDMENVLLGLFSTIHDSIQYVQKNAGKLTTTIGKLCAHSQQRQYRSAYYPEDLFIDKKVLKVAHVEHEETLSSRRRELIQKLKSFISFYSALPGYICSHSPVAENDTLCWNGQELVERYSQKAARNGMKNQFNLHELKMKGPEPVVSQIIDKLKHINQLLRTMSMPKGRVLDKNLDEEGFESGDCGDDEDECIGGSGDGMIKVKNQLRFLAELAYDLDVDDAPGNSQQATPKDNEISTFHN

B1: BGA-9612 VHH-Fc (camelid anti-huCD137 VHH fused at the N terminal of human IgG1 Fc-null with a G4S linker) (VHH)
VHH: QVQLVESGGGTVQPGDSLRLSCAASGRTFDNYAVGWFRQAPGKERQYVGTYWSGYAHYGDFENNRFTISRDNAKNTVYLQMDNLKPEDTAVYYCAISLKYPMATVTPDYQGQGTQVTVSS
For B1, the results for the binding result in [1], in experiment [2] and in experiment [3] were “binds”, “no binding” and “binds”, respectively.

B2: BE-915 (anti-GPC3 x CD137 bispecific antibody, GPC3 antibody + VHH BGA-2524, IgG1mf Fc-YTE) (bispecific antibody)
heavy: QVQLVQSGAEVKKPGASVKVSCKASGYTFTDYEMHWVRQAPGQGLEWMGALDPKTGDTAYSQKFKGRVTLTADKSTSTAYMELSSLTSEDTAVYYCTRFYSYTYWGQGTLVTVSSASTKGPSVFPLAPSSKSTSGGTAALGCLVKDYFPEPVTVSWNSGALTSGVHTFPAVLQSSGLYSLSSVVTVPSSSLGTQTYICNVNHKPSNTKVDKKVEPKSCDKTHTCPPCPAPPAAGPSVFLFPPKPKDTLYITREPEVTCVVVDVSHEDPEVKFNWYVDGVEVHNAKTKPREEQYNSTYRVVSVLTVLHQDWLNGKEYKCKVSNKALAAPIEKTISKAKGQPREPQVYTLPPSREEMTKNQVSLTCLVKGFYPSDIAVEWESNGQPENNYKTTPPVLDSDGSFFLYSKLTVDKSRWQQGNVFSCSVMHEALHNHYTQKSLSLSPGKGGGGSEVQLVESGGGLVQPGGSLRLSCAASGRTFDNYAVGWFRQAPGKEREYVGTYWSGYAHYGDFENNRFTISRDNAKNTVYLQMNNLRPEDTAVYYCAISLKYPMATVTPDYQGQGTQVTVSS
light: DVVMTQSPLSLPVTPGEPASISCRSSQSLVHSNRNTYLHWYLQKPGQSPQLLIYKVSNRFSGVPDRFSGSGSGTDFTLKISRVEAEDVGVYYCSQNTHVPPTFGQGTKLEIKRTVAAPSVFIFPPSDEQLKSGTASVVCLLNNFYPREAKVQWKVDNALQSGNSQESVTEQDSKDSTYSLSSTLTLSKADYEKHKVYACEVTHQGLSSPVTKSFNRGEC
On to B2, for which the results for the EC50 in [4] and in experiment [10] were 1.09 nM and 0.69 nM, respectively. In addition, in experiment [5], the “EC50 (read off the curve)” value is about 0.1 µg/mL. Also, the Kd in [6] was found to be 4.4 nM; in experiment [7], 2.4 nM; in experiment [8] it was 3.6 nM; in [9], 0.53 nM. For the same molecule, the koff in experiment [6] turned out to be 0.00055 s⁻¹; in [7], 0.00014 s⁻¹; in [8] it was 0.00042 s⁻¹; in experiment [9], 0.00011 s⁻¹. Further, the kon in experiment [6] was 130000 M⁻¹ s⁻¹; in [7], 58000 M⁻¹ s⁻¹; in experiment [8], 120000 M⁻¹ s⁻¹; in [9], 210000 M⁻¹ s⁻¹.

(Values after patent US20250154279A1 (BEIGENE, published 2025).)
